Data on 6 sequences can be found in the Immune Epitope Database (IEDB).

Assay [1] deals with HLA-A*24:02. The experiment in a line: IEDB peptide-MHC binding, purified MHC/competitive/fluorescence; ≥ and ≤ were set here for values at or beyond the usual limits of such assays. Particulars: source organism: Zaire ebolavirus.
The target in assay [2] is HLA-B*08:01. Described as above. Particulars: source organism: Zaire ebolavirus.
The next assay deals with HLA-A*01:01. Description: IEDB peptide-MHC binding, purified MHC/direct/fluorescence; filed as Kd, often an IC50 or EC50 that approximates it; ≥ and ≤ were set here for values at or beyond the usual limits of such assays. The note with it: source organism: Influenza A virus (A/WSN/1933(H1N1)).
Assay [3] deals with HLA-A*03:01. The description is as above. Particulars: source organism: Influenza A virus (A/WSN/1933(H1N1)).
The target of assay [4] is HLA-A*11:01. The assay is described as above. Particulars: source organism: Influenza A virus (A/WSN/1933(H1N1)).
Assay [5] addresses HLA-A*24:02. Described as above. Particulars: source organism: Influenza A virus (A/WSN/1933(H1N1)).
For assay [6], the target named is HLA-B*07:02. Described as above. Particulars: source organism: Influenza A virus (A/WSN/1933(H1N1)).
Assay [7] addresses HLA-B*08:01. The assay is described as above. Particulars: source organism: Influenza A virus (A/WSN/1933(H1N1)).
Assay [8] addresses HLA-B*15:01. The description is as above. Particulars: source organism: Influenza A virus (A/WSN/1933(H1N1)).
For the next assay, the target named is HLA-B*27:05. The description is as above. The note with it: source organism: Influenza A virus (A/WSN/1933(H1N1)).
The next assay addresses HLA-B*40:01. Described as above. Particulars: source organism: Influenza A virus (A/WSN/1933(H1N1)).
Another assay concerns the target HLA-B*44:02. The description is as above. Particulars: source organism: Influenza A virus (A/WSN/1933(H1N1)).
The target of assay [9] is HLA-B*46:01. The description is as above. The note with it: source organism: Influenza A virus (A/WSN/1933(H1N1)).
Another assay addresses HLA-B*58:01. The description is as above. The note with it: source organism: Influenza A virus (A/WSN/1933(H1N1)).
The target in assay [10] is HLA-A*02:01. The experiment in a line: IEDB peptide-MHC binding, purified MHC/competitive/fluorescence; filed as Kd, often an IC50 or EC50 that approximates it; ≥ and ≤ were set here for values at or beyond the usual limits of such assays.
A further assay addresses HLA-A*02:03. The assay is described as above.
The next assay has as its target HLA-A*02:11. The description is as above.
The next assay has as its target HLA-A*02:12. The description is as above.
The next assay concerns the target HLA-A*02:16. The description is as above.
In the next assay the target is HLA-A*02:19. Described as above.
For assay [11], the target named is HLA-A*03:01. The description is as above.
Another assay addresses HLA-A*23:01. The description is as above.
Another assay concerns the target HLA-A*24:03. Described as above.
For another assay, the target named is HLA-A*26:01. Described as above.
The target in another assay is HLA-A*29:02. The assay is described as above.
The next assay addresses HLA-A*69:01. Described as above.
For assay [12], the target named is HLA-B*15:01. The assay is described as above.
The target in another assay is HLA-B*15:17. The description is as above.
The target of a further assay is HLA-B*18:01. The description is as above.
The next assay addresses HLA-B*27:03. The assay is described as above.
A further assay addresses HLA-B*39:01. The description is as above.
The target of assay [13] is HLA-B*46:01. The assay is described as above.
In a further assay the target is HLA-B*51:01. The assay is described as above.
In the next assay the target is HLA-B*57:01. The description is as above.
The target in assay [14] is HLA-A*02:01. The experiment in a line: IEDB peptide-MHC binding, purified MHC/competitive/fluorescence; ≥ and ≤ were set here for values at or beyond the usual limits of such assays. The note with it: source organism: Zaire ebolavirus.
The target in assay [15] is HLA-A*03:01. The assay is described as above. The note with it: source organism: Zaire ebolavirus.
In assay [16] the target is HLA-A*11:01. Described as above. Particulars: source organism: Zaire ebolavirus.
For assay [17], the target named is HLA-B*07:02. Described as above. The note with it: source organism: Zaire ebolavirus.
Assay [18] deals with HLA-B*15:01. Described as above. The note with it: source organism: Zaire ebolavirus.
In assay [19] the target is HLA-A*02:01. The experiment in a line: IEDB peptide-MHC binding, purified MHC/direct/fluorescence; filed as Kd, often an IC50 or EC50 that approximates it; ≥ and ≤ were set here for values at or beyond the usual limits of such assays. The note with it: source organism: Zaire ebolavirus.
The next assay has as its target HLA-A*68:02. Description: IEDB peptide-MHC binding, purified MHC/competitive/fluorescence; filed as Kd, often an IC50 or EC50 that approximates it; ≥ and ≤ were set here for values at or beyond the usual limits of such assays. Particulars: source organism: Burkholderia orbicola.
[20] abbreviates: source organism: Brucella melitensis bv. 1 str. 16M.
The mark [21] stands for this setting: source organism: Zaire ebolavirus.
Where [22] appears, read: source organism: Burkholderia orbicola.

As to NHKNKFMAI, the half-maximal inhibitory concentration (IC50) with HLA-A*24:02 [1] was 19.4 µM; with HLA-B*08:01 [2], 15.9 µM.
As to NLEPGTFDL, the Kd in the assay with HLA-A*01:01, with HLA-A*03:01 [3], with HLA-A*11:01 [4], with HLA-A*24:02 [5], with HLA-B*07:02 [6] and in the assay with HLA-B*08:01 [7] was no less than 20 µM in each case. Further, the Kd with HLA-B*15:01 [8], with HLA-B*27:05, in the assay with HLA-B*40:01, with HLA-B*44:02, with HLA-B*46:01 [9] and with HLA-B*58:01 was no less than 20 µM each time.
For the sequence AVGVVCTGL, the dissociation constant (Kd) was no less than 20 µM with HLA-A*02:01 [10] (setting [20]); no less than 20 µM in the assay with HLA-A*02:03 (setting [20]); no less than 20 µM with HLA-A*02:11 (setting [20]); no less than 20 µM with HLA-A*02:12 (setting [20]); 0.273 µM in the assay with HLA-A*02:16 (setting [20]); no less than 20 µM in the assay with HLA-A*02:19 (setting [20]). Moreover, the Kd with HLA-A*03:01 [11] (setting [20]), with HLA-A*23:01 (setting [20]), in the assay with HLA-A*24:03 (setting [20]), with HLA-A*26:01 (setting [20]), with HLA-A*29:02 (setting [20]) and in the assay with HLA-A*69:01 (setting [20]) was no less than 20 µM in each case. Besides, the dissociation constant (Kd) with HLA-B*15:01 [12] (setting [20]), with HLA-B*15:17 (setting [20]), in the assay with HLA-B*18:01 (setting [20]), with HLA-B*27:03 (setting [20]), with HLA-B*39:01 (setting [20]) and in the assay with HLA-B*46:01 [13] (setting [20]) was no less than 20 µM throughout. Further, the dissociation constant Kd with HLA-B*51:01 (setting [20]) and with HLA-B*57:01 (setting [20]) was no less than 20 µM in each case.
As to RLMRTNFLI, the IC50 in the assay with HLA-A*02:01 [14] was 0.514 µM; in the assay with HLA-A*03:01 [15], 3.42 µM; in the assay with HLA-A*11:01 [16], 3.95 µM; with HLA-A*24:02 [1], 0.0213 µM; in the assay with HLA-B*07:02 [17] it was 15.9 µM; with HLA-B*08:01 [2] it was 58.7 µM. Moreover, in the assay with HLA-B*15:01 [18], the IC50 amounted to 11.4 µM. Also, the Kd is 0.0175 µM with HLA-A*02:01 [19], no less than 20 µM with HLA-A*26:01 (setting [21]), no less than 20 µM with HLA-B*18:01 (setting [21]) and no less than 20 µM with HLA-B*46:01 [13] (setting [21]).
For the sequence TNFLIKFLL, the IC50 with HLA-A*02:01 [14] is no less than 181 µM; with HLA-A*24:02 [1], 3.2 µM; with HLA-B*08:01 [2], no less than 523 µM.
Regarding RIEQLYPFA, the dissociation constant Kd in the assay with HLA-A*02:01 [10] (setting [22]) is no less than 20 µM; with HLA-A*02:03 (setting [22]), no less than 20 µM; with HLA-A*02:11 (setting [22]) it was no less than 20 µM; with HLA-A*02:12 (setting [22]), no less than 20 µM; with HLA-A*02:16 (setting [22]), 0.292 µM; in the assay with HLA-A*02:19 (setting [22]), no less than 20 µM. Further, the dissociation constant Kd with HLA-A*03:01 [11] (setting [22]), with HLA-A*23:01 (setting [22]), in the assay with HLA-A*24:03 (setting [22]), with HLA-A*26:01 (setting [22]), with HLA-A*29:02 (setting [22]) and with HLA-A*68:02 was no less than 20 µM throughout. Besides, the equilibrium dissociation constant (Kd) with HLA-A*69:01 (setting [22]), with HLA-B*15:01 [12] (setting [22]), in the assay with HLA-B*15:17 (setting [22]), in the assay with HLA-B*18:01 (setting [22]), with HLA-B*27:03 (setting [22]) and with HLA-B*39:01 (setting [22]) was no less than 20 µM each time. For the same sequence, the Kd with HLA-B*46:01 [13] (setting [22]), in the assay with HLA-B*51:01 (setting [22]) and with HLA-B*57:01 (setting [22]) was no less than 20 µM in each case.
